Experimental data from patent publication US20230220589A1.
Where a chain is given by its changes, count along the chain named. Values belong to the binder of their own block, whether it stands above or below them.

What was measured:
[1] = target: M44-modified G NTAA target peptides (M44-G-P2-peptide); test: encoding assay; P2 E;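 further: fraction of recording tags encoded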
[2] = target: M44-modified A NTAA target peptides (M44-A-P2-peptide); test: encoding assay; P2 A
[3] = target: M44-modified F NTAA target peptides (M44-F-P2-peptide); test: encoding assay; P2 A;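 further: fraction of recording tags encoded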
[4] = target: M44-modified G NTAA target peptides (M44-G-P2-peptide); test: encoding assay; P2 A;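 further: fraction of recording tags encoded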
[5] = target: M44-modified H NTAA target peptides; test: encoding assay; P2 A
[6] = target: M44-modified I NTAA target peptides (M44-I-P2-peptide); test: encoding assay; P2 A
[7] = target: M44-modified L NTAA target peptides (M44-L-P2-peptide); test: encoding assay; P2 A;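 further: fraction of recording tags encoded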
[8] = target: M44-modified M NTAA target peptides; test: encoding assay; P2 A
[9] = target: M44-modified N NTAA target peptides; test: encoding assay; P2 A
[10] = target: M44-modified Q NTAA target peptides; test: encoding assay; P2 A
[11] = target: M44-modified V NTAA target peptides; test: encoding assay; P2 A;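 further: fraction of recording tags encoded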
[12] = target: M44-modified W NTAA target peptides; test: encoding assay; P2 A;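 further: fraction of recording tags encoded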
[13] = target: M44-modified Y NTAA target peptides (M44-Y-P2-peptide); test: encoding assay; P2 A;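 further: fraction of recording tags encoded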
[14] = target: M44-modified D NTAA target peptides; test: encoding assay; P2 D;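 further: fraction of recording tags encoded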
[15] = target: M44-modified E NTAA target peptides; test: encoding assay; P2 D;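 further: fraction of recording tags encoded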
[16] = target: M44-modified A NTAA target peptides (M44-A-P2-peptide); test: encoding assay; P2 H
[17] = target: M44-modified D NTAA target peptides; test: encoding assay; P2 H;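 further: fraction of recording tags encoded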
[18] = target: M44-modified F NTAA target peptides (M44-F-P2-peptide); test: encoding assay; P2 H;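 further: fraction of recording tags encoded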
[19] = target: M44-modified H NTAA target peptides; test: encoding assay; P2 H
[20] = target: M44-modified I NTAA target peptides (M44-I-P2-peptide); test: encoding assay; P2 H
[21] = target: M44-modified L NTAA target peptides (M44-L-P2-peptide); test: encoding assay; P2 H;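 further: fraction of recording tags encoded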
[22] = target: M44-modified M NTAA target peptides; test: encoding assay; P2 H
[23] = target: M44-modified N NTAA target peptides; test: encoding assay; P2 H
[24] = target: M44-modified P NTAA target peptides; test: encoding assay; P2 H;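 further: fraction of recording tags encoded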
[25] = target: M44-modified Q NTAA target peptides; test: encoding assay; P2 H
[26] = target: M44-modified V NTAA target peptides; test: encoding assay; P2 H;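 further: fraction of recording tags encoded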
[27] = target: M44-modified Y NTAA target peptides (M44-Y-P2-peptide); test: encoding assay; P2 H;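 further: fraction of recording tags encoded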
[28] = target: M17-modified A NTAA target peptides; test: encoding assay; P2 E;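 further: fraction of recording tags encoded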
[29] = target: M17-modified D NTAA target peptides; test: encoding assay; P2 E;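 further: fraction of recording tags encoded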
[30] = target: M17-modified E NTAA target peptides; test: encoding assay; P2 E;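 further: fraction of recording tags encoded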
[31] = target: M17-modified F NTAA target peptides; test: encoding assay; P2 E;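 further: fraction of recording tags encoded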
[32] = target: M17-modified G NTAA target peptides; test: encoding assay; P2 E;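 further: fraction of recording tags encoded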
[33] = target: M17-modified H NTAA target peptides; test: encoding assay; P2 E;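 further: fraction of recording tags encoded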
[34] = target: M17-modified I NTAA target peptides; test: encoding assay; P2 E;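 further: fraction of recording tags encoded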
[35] = target: M17-modified L NTAA target peptides; test: encoding assay; P2 E;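 further: fraction of recording tags encoded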
[36] = target: M17-modified M NTAA target peptides; test: encoding assay; P2 E;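 further: fraction of recording tags encoded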
[37] = target: M17-modified N NTAA target peptides; test: encoding assay; P2 E;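 further: fraction of recording tags encoded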
[38] = target: M17-modified P NTAA target peptides; test: encoding assay; P2 E;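 further: fraction of recording tags encoded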
[39] = target: M17-modified Q NTAA target peptides; test: encoding assay; P2 E;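 further: fraction of recording tags encoded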
[40] = target: M17-modified S NTAA target peptides; test: encoding assay; P2 E;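 further: fraction of recording tags encoded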
[41] = target: M17-modified T NTAA target peptides; test: encoding assay; P2 E;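 further: fraction of recording tags encoded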
[42] = target: M17-modified V NTAA target peptides; test: encoding assay; P2 E;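 further: fraction of recording tags encoded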
[43] = target: M17-modified W NTAA target peptides; test: encoding assay; P2 E;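 further: fraction of recording tags encoded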
[44] = target: M17-modified Y NTAA target peptides (M17-Y-P2-peptide); test: encoding assay; P2 E;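 further: fraction of recording tags encoded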
[45] = target: M17-modified G NTAA target peptides; test: encoding assay; P2 D;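 further: fraction of recording tags encoded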
[46] = target: M17-modified I NTAA target peptides; test: encoding assay; P2 D;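 further: fraction of recording tags encoded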
[47] = target: M17-modified M NTAA target peptides; test: encoding assay; P2 D;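 further: fraction of recording tags encoded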
[48] = target: M17-modified N NTAA target peptides; test: encoding assay; P2 D;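 further: fraction of recording tags encoded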
[49] = target: M17-modified Q NTAA target peptides; test: encoding assay; P2 D;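 further: fraction of recording tags encoded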
[50] = target: M17-modified T NTAA target peptides; test: encoding assay; P2 D;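 further: fraction of recording tags encoded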
[51] = target: M17-modified V NTAA target peptides; test: encoding assay; P2 D;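 further: fraction of recording tags encoded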
[52] = target: M17-modified Y NTAA target peptides (M17-Y-P2-peptide); test: encoding assay; P2 D;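 further: fraction of recording tags encoded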

encoding yield [28]: 0.03
encoding yield [29]: 0.02
encoding yield [30]: 0.03
encoding yield [31]: 0.02
encoding yield [32]: 0.02
encoding yield [33]: 0.02
encoding yield [34]: 0.02
encoding yield [35]: 0.02
encoding yield [36]: 0.01
encoding yield [37]: 0.02
encoding yield [38]: 0.04
encoding yield [39]: 0.03
encoding yield [40]: 0.03
encoding yield [41]: 0.02
encoding yield [42]: 0.03
encoding yield [43]: 0.06
encoding yield [44]: 0.16
encoding yield [45]: 0.03
encoding yield [46]: 0.02
encoding yield [47]: 0.03
encoding yield [48]: 0.03
encoding yield [49]: 0.02
encoding yield [50]: 0.01
encoding yield [51]: 0.02
encoding yield [52]: 0.1
B3: upgraded binder after additional maturation round (SEQ ID NO: 62) (designed binder, not shown: small tags and cut ends; large carriers)
chain: TVPDRSEIAGKWYVVALASNTEFYLRGKDRVKSAMVRISFQGEDELKVSSAVPSPNGCYKVERTWKKTSDDGEVYNSRAAKLKVEVLDTDYKSYAVIYATRVKDRRTDHQMILYSRSPDVSPAATAIFRKLAGERNYTDEMVAMLPRQEECTVDEV

encoding yield [1]: 0.01
encoding yield [2]: 0.02
encoding yield [3]: 0.11
encoding yield [4]: 0.03
encoding yield [5]: 0.01
encoding yield [6]: 0.07
encoding yield [7]: 0.14
encoding yield [8]: 0.05
encoding yield [9]: 0.02
encoding yield [10]: 0.02
encoding yield [11]: 0.02
encoding yield [12]: 0.08
encoding yield [13]: 0.04
encoding yield [14]: 0.01
encoding yield [15]: 0.01
encoding yield [16]: 0.02
encoding yield [17]: 0.02
encoding yield [18]: 0.01
encoding yield [19]: 0.02
encoding yield [20]: 0.02
encoding yield [21]: 0.02
encoding yield [22]: 0.03
encoding yield [23]: 0.03
encoding yield [24]: 0.03
encoding yield [25]: 0.03
encoding yield [26]: 0.02
encoding yield [27]: 0.05
B4: engineered M44-L binder (SEQ ID NO: 31) (designed binder, not shown: small tags and cut ends; large carriers)
chain: QDSTQNLIPAPPLISVPLQPGFWTERFQGRWFLVGFAGNAVQKERQSRLTMQSLILELQEDNSYNITAINVRGQGCRYIISTLVPSSRPGQFTLGNIHSYPQIQSLDVQVADTDYDQFAMVFLQGTSENKQYFEVALAGRTKGLSDELKERFVSFAKSLGLKDNNIVFSVPTDQCIDN

Continued, binder first:

B1: engineered M44-A binder (SEQ ID NO: 42) (designed binder, not shown: small tags and cut ends; large carriers)
chain: QVSVQPNFQQDKFLGRWFVAGLASNSSWDREKVAALSGAKMVVAPATDGGLNVTRTMLRKNQCETYTGLLQPAGSLGSYSWRSPHPGSTGSESVVETDYDQYALVYGQGSKGPGEDLRAAALWSRTQTPRAELKEKFTAFSKAQGFTEDTIVFLPQTDKCMTEQ
encoding yield [1]: 0.01
encoding yield [2]: 0.11
encoding yield [3]: 0.06
encoding yield [4]: 0.04
encoding yield [5]: 0.01
encoding yield [6]: 0.05
encoding yield [7]: 0.04
encoding yield [8]: 0.03
encoding yield [9]: 0.02
encoding yield [10]: 0.03
encoding yield [11]: 0.03
encoding yield [12]: 0.03
encoding yield [13]: 0.03
encoding yield [14]: 0.02
encoding yield [15]: 0.01
encoding yield [16]: 0.05
encoding yield [17]: 0.04
encoding yield [18]: 0.02
encoding yield [19]: 0.02
encoding yield [20]: 0.04
encoding yield [21]: 0.03
encoding yield [22]: 0.04
encoding yield [23]: 0.05
encoding yield [24]: 0.05
encoding yield [25]: 0.05
encoding yield [26]: 0.03
encoding yield [27]: 0.07

B2: engineered M17-Y binder (SEQ ID NO: 61) (designed binder, not shown: small tags and cut ends; large carriers)
chain: B3 chain with G27E, R30W, V36A, Q41L, R105G, D119E
encoding yield [28]: 0.02
encoding yield [29]: 0.02
encoding yield [30]: 0.02
encoding yield [31]: 0.01
encoding yield [32]: 0.01
encoding yield [33]: 0.02
encoding yield [34]: 0.01
encoding yield [35]: 0.02
encoding yield [36]: 0.01
encoding yield [37]: 0.01
encoding yield [38]: 0.02
encoding yield [39]: 0.02
encoding yield [40]: 0.02
encoding yield [41]: 0.01
encoding yield [42]: 0.02
encoding yield [43]: 0.03
encoding yield [44]: 0.07
encoding yield [45]: 0.03
encoding yield [46]: 0.01
encoding yield [47]: 0.02
encoding yield [48]: 0.02
encoding yield [49]: 0.01
encoding yield [50]: 0.01
encoding yield [51]: 0.02
encoding yield [52]: 0.05

B5: engineered M44-L binder (SEQ ID NO: 21) (designed binder, not shown: small tags and cut ends; large carriers)
chain: QVSVQPNFQQDKFLGRWFYAGHASNSSWYREKVAALSMAKLVVAPATDGGLNATETFLRKNQCETITSLLQPAGSLGSYSSRSPHGGSTWSTSVVETDYDQYALLYLQGSKGPGEDFRGAILASRTQTPRAELKEKFTAFSKAQGFTEDTIVFLPQTDKCMTEQ
encoding yield [2]: 0.01
encoding yield [3]: 0.07
encoding yield [4]: 0.01
encoding yield [5]: 0.01
encoding yield [6]: 0.29
encoding yield [7]: 0.19
encoding yield [8]: 0.06
encoding yield [9]: 0.01
encoding yield [10]: 0.01
encoding yield [11]: 0.01
encoding yield [12]: 0.01
encoding yield [13]: 0.01
encoding yield [16]: 0.01
encoding yield [17]: 0.01
encoding yield [18]: 0.01
encoding yield [19]: 0.01
encoding yield [20]: 0.01
encoding yield [21]: 0
encoding yield [22]: 0.01
encoding yield [23]: 0.01
encoding yield [24]: 0.01
encoding yield [25]: 0.01
encoding yield [26]: 0.01
encoding yield [27]: 0.02
